Assay results published in patent publication US11834499 (University of California, dated 2023).
Residue numbers refer to the chain shown, from its start.

B1: 02-0307-5h antibody (antibody, V domains shown)
VH: EVQLLESGGGLVQPGGSLRLSCAASGFTFSSYTMSWVRQAPGKGLEWVATIIIGGSYTYYADSVKGRFTISRDNSKNTLYLQMNSLRAEDTAVYYCTRLVKGNAMDYWGQGTLVTVSS
VL: DIVMTQSPDSLAVSLGERVTMNCKSSQSLLQSGNQKNYLSWYQQKPGQPPKLLFYWASTRESGVPDRFSGSGSGTDFTLTISSVQAEDVAVYYCQNDYSYPFTFGQGTKLEIK
notes: also called 02-h1F06-5h
B2: 02-0307-10h antibody (antibody, V domains shown)
VH: B1 VH with N103S
VL: B1 VL with Q31N
notes: also called 02-h1F06-10h
B3: 02-0358-4h antibody (antibody, V domains shown)
VH: EVQLVESGGGLVQPGGSLRLSCAVSGFTFSSFGMHWVRQAPGKGLEWVAYISSGTTNIYYADSVKGRFTVSRDNAKNSLYLQMNSLRAEDTAVYYCVRSGYYGNSLDYWGQGTLVTVSS
VL: B1 VL with L30F, K36R, S40T, F54I, D97V, S99I, F102L
B4: 02-0358-6h antibody (antibody, V domains shown)
VH: B3 VH with N104Q
VL: B1 VL with L30F, Q31N, K36R, S40T, F54I, D97V, S99I, F102L
B5: 02-0307-7h antibody (antibody, V domains shown)
VH: B1 VH with N103Q
VL: B1 VL with Q31N
notes: also called 02-h1F06-7h
B6: 02-0307-9h antibody (antibody, V domains shown)
VH: B1 VH with N103Q
VL: B1 VL with Q31S
notes: also called 02-h1F06-9h
B7: 02-0307-8h antibody (antibody, V domains shown)
VH: B1 VH with N103Q
VL: B1 VL
notes: also called 02-h1F06-8h
B8: 02-0307-11h antibody (antibody, V domains shown)
VH: B1 VH with N103S
VL: B1 VL
notes: also called 02-h1F06-11h
B9: 02-0307-12h antibody (antibody, V domains shown)
VH: B1 VH with N103S
VL: B1 VL with Q31S
notes: also called 02-h1F06-12h
B10: Ab 358 (antibody, V domains shown)
VH: VVQLVESGGDFVQPGGSRKLSCAVSGFTFSSFGMHWVRQAPEKGLEWVAYISSGTTNIYYADTVKGRFTVSRDNPKNSLFLHMTSLRSEDTAMYYCVRSGYYGNSLDYWGQGTPLTVSS
VL: DIVMTQSPSSLTVTAGEKVTMSCKSSQSLFNSGNQRNYLTWYQQKPGQPPKLLIYWASTRESGVPDRFTGSGSGTGFTLTISSVQAEDLAFYYCQNVYIYPLTFGLGTKLELR
B11: Ab 360 (antibody, V domains shown)
VH: VVQLQQSGPELVKPGASVKMSCKASGYTFTSYLMHWVRQKPGLGLDWIGYINPYNDGTNYNAKFIDKATLTSDKTSSTAYMELSSLTSEDSAIYYCTRGDYWGQGTSVTVSS
VL: DIVMTQSPSSLAVTAGEQVTMSCKSSQSLLNSGNQKNYLTWYQQKPGQPPKLLIYWASIRQSGVPDRFTGSGSGTDFTLTISSVQAEDLAVYYCLNDYGFPLTFGAGTKLELK
notes: also called 360-Chim
B12: HuAb432-1 (antibody, V domains shown)
VH: QVQLVQSGAEVKKPGSSVKVSCKASGYTFTSDVISWVRQAPGQGLEWMGESYLRNGNTYYAQKFQGRVTITADKSTSTAYMELSSLRSEDTAVYYCARSYYGNSFAYWGQGTLVTVSS
VL: B1 VL with V19A, M21I, S26T, Q31N, S40T, F54I, V84L, D97A, S99Y
B13: HuAb358-2 (antibody, V domains shown)
VH: B3 VH
VL: B1 VL with L30F, Q31N, K36R, S40T, F54I, D97V, S99I, F102L
B14: HuAb432-2 (antibody, V domains shown)
VH: B12 VH
VL: B1 VL with S26T, Q31N, S40T, F54I, D97A, S99Y
B15: HuAb358-1 (antibody, V domains shown)
VH: B3 VH
VL: DIVMTQSPDSLAVSLGERATINCKSSQSLFNSGNQRNYLTWYQQKPGQPPKLLIYWASTRESGVPDRFSGSGSGTDFTLTISSLQAEDVAVYYCQNVYIYPLTFGQGTKLEIK
B16: HuAb432-3 (antibody, V domains shown)
VH: B12 VH with V20L, M48I, V68A, I70L
VL: B15 VL with S26T, F30L, R36K, V97A, I99Y, L102F
B17: HuAb376-1 (antibody, V domains shown)
VH: B1 VH with I52S, I53S, G55V, V100T
VL: B15 VL with F30L, R36K, V97D, I99S, L102F
B18: HuAb376-2 (antibody, V domains shown)
VH: B1 VH with I52S, I53S, G55V, V100T
VL: B1 VL with Q31N, S40T, F54I
B19: HuAb307-2 (antibody, V domains shown)
VH: B1 VH
VL: B1 VL with V19A, M21I, Q31N, V84L
B20: HuAb432-4 (antibody, V domains shown)
VH: B12 VH with V20L, M48I, V68A, I70L
VL: B1 VL with S26T, Q31N, S40T, F54I, D97A, S99Y
B21: HuAb307-1 (antibody, V domains shown)
VH: B1 VH
VL: B1 VL with V19A, M21I, Q31N, F54I, V84L
B22: HuAb360-3 (antibody, V domains shown)
VH: QVQLVQSGAEVKKPGASVKMSCKASGYTFTSYLMHWVRQAPGQGLEWIGYINPYNDGTNYAQKFQGRATLTSDTSTSTAYMELSSLRSEDTAVYYCTRGDYWGQGTLVTVSS
VL: B15 VL with F30L, R36K, T59I, E61Q, Q95L, V97D, I99G, Y100F
B23: HuAb360-6 (antibody, V domains shown)
VH: B22 VH with T74K
VL: B1 VL with Q31N, S40T, F54I, T59I, E61Q, Q95L, S99G, Y100F, F102L
B24: HuAb360-1 (antibody, V domains shown)
VH: B22 VH with M20V, A68V, L70M, A79V
VL: B15 VL with F30L, R36K, T59I, E61Q, Q95L, V97D, I99G, Y100F
B25: HuAb360-5 (antibody, V domains shown)
VH: B22 VH with T74K
VL: B15 VL with F30L, R36K, T59I, E61Q, Q95L, V97D, I99G, Y100F
B26: HuAb360-4 (antibody, V domains shown)
VH: B22 VH
VL: B1 VL with Q31N, S40T, F54I, T59I, E61Q, Q95L, S99G, Y100F, F102L
B27: HuAb360-2 (antibody, V domains shown)
VH: B22 VH with M20V, A68V, L70M, A79V
VL: B1 VL with Q31N, S40T, F54I, T59I, E61Q, Q95L, S99G, Y100F, F102L
B28: Ab 432 (antibody, V domains shown)
VH: QIQLQQSGAELARPRASVKLSCKASGYTFTSDVISWVKQRPGQGLEWIGESYLRNGNTYYNENFKGKATLTADKSSSTAYMELRSLTSEDSAVYFCARSYYGNSFAYWGQGTLVTVSA
VL: DIVMTQSPSSLTVTAREKVTMNCKSTQSLLNSGNQKNYLTWYQQKPGQPPKLLIYWASTRESGVPDRFTGSGSGTDFTLTISSVQAEDLAVYYCQNAYYYPFTFGGGTKLEIK
notes: also called 432-Chim
B29: Zolbetuximab (Benchmark 3) (antibody, V domains shown)
VH: QVQLQQPGAELVRPGASVKLSCKASGYTFTSYWINWVKQRPGQGLEWIGNIYPSDSYTNYNQKFKDKATLTVDKSSSTAYMQLSSPTSEDSAVYYCTRSWRGNSFDYWGQGTTLTVSS
VL: B28 VL with R16G, N22S, T26S, A97D, Y99S, G106S
notes: also called zoletuximab
B30: Ab 307 (antibody, V domains shown)
VH: DVKLVESGGGLVKPGGSLKLSCAASGFTFSSYTMSWVRQTPEKRLEWVATIIIGGSYTYYPDSVKGRFTISRDNAKNTLYLQMSSLKSEDTAMYYCTRLVKGNAMDYWGQGTSVAVSS
VL: DIVMTQSPSSLTVTTGEKVTMSCKSSQSLLNSGNQKNYLSWYQQIPGQPPKLLFYWASTRESGVPDRFTGSGSGTDFTLTISNVQAEDLAVYYCQNDYSYPFTFGAGTKLELR

The binders below were run against T1, human Claudin-18.2 (CLDN18.2) (human) (assay: flow cytometry; HUPT4 over M202 [Cont.]).
T1 construct: On cells: fused to GFP in engineered HEK293T cells (clone C12), endogenous in HUPT4 and SNU601 cells; also called human CLDN18.2
Experimental: (§1) The samples were then measured by Intellicyt® iQue Advanced Flow Cytometry Platform.

| ratio native | Binder |
| --- | --- |
| 121 | B1 |
| 6.42 | B2 |
| 94 | B3 |
| 79.9 | B4 |
| 22.5 | B5 |
| 45.1 | B6 |
| 12.2 | B7 |
| 1.52 | B8 |
| 9.89 | B9 |

The binders below were run against T1, human Claudin-18.2 (CLDN18.2) (assay: FACS, 1.5 ug antibody, HEK293T-CLDN18.2 C12 clone cells).

| FACS signal (relative antigen binding strength) | Binder |
| --- | --- |
| 139000 | B10 |
| 117000 | B11 |
| 97400 | B12 |
| 122000 | B13 |
| 128000 | B14 |
| 131000 | B15 |
| 88800 | B16 |
| 140000 | B17 |
| 119000 | B18 |
| 133000 | B19 |
| 173000 | B20 |
| 126000 | B21 |
| 157000 | B22 |
| 159000 | B23 |
| 120000 | B24 |
| 138000 | B25 |
| 149000 | B26 |
| 138000 | B27 |
| 161000 | B28 |
| 109000 | B29 |
| 141000 | B30 |

What follows are binders tested against T1, human Claudin-18.2 (CLDN18.2) (assay: FACS, 1.5 ug antibody, HUPT4 cells (endogenous CLDN18.2)).
Experimental: FACS assays were carried out to determine relative antigen binding strengths of the humanized antibodies (at either 1.5 μg or 0.3 μg) for binding to CLDN18.2 as expressed by the indicated cancer cell lines.

| FACS signal (relative antigen binding strength) | Binder |
| --- | --- |
| 33300 | B10 |
| 26200 | B11 |
| 30600 | B12 |
| 29800 | B13 |
| 36100 | B14 |
| 52700 | B15 |
| 27100 | B16 |
| 29700 | B17 |
| 28300 | B18 |
| 32500 | B19 |
| 23100 | B20 |
| 30200 | B21 |
| 27400 | B22 |
| 34600 | B23 |
| 26400 | B24 |
| 28600 | B25 |
| 28000 | B26 |
| 24900 | B27 |
| 27900 | B28 |
| 10600 | B29 |
| 34700 | B30 |

The binders below were run against T1, human Claudin-18.2 (CLDN18.2) (assay: flow cytometry; HEK293T CLDN18.2 over HEK293T parental [Cont.]).
Experimental: as §1

| ratio OE | Binder |
| --- | --- |
| 408 | B1 |
| 202 | B2 |
| 575 | B3 |
| 435 | B4 |
| 326 | B5 |
| 273 | B6 |
| 166 | B7 |
| 40 | B8 |
| 183 | B9 |
